Laboratory results: patent US20110136850A1

Legend:
[1] = biological target: topoisomerase I from H358 cells (serine-phosphorylated) (human) (UniProt P11387); assay: IP/Western analysis, FIG. 5D upper panel
[2] = biological target: topoisomerase I from H358 cells (serine-phosphorylated) (human) (UniProt P11387); assay: IP/Western analysis, FIG. 5D upper panel lane 5
[3] = biological target: topoisomerase I from H358 cells (serine-phosphorylated) (human) (UniProt P11387); assay: co-immunoprecipitation followed by Western analysis, 48 hours after Adp14 (moi 20 pfu/cell)

Sequence of topoisomerase I from H358 cells (serine-phosphorylated) (human) (P11387 2-765 limits assumed): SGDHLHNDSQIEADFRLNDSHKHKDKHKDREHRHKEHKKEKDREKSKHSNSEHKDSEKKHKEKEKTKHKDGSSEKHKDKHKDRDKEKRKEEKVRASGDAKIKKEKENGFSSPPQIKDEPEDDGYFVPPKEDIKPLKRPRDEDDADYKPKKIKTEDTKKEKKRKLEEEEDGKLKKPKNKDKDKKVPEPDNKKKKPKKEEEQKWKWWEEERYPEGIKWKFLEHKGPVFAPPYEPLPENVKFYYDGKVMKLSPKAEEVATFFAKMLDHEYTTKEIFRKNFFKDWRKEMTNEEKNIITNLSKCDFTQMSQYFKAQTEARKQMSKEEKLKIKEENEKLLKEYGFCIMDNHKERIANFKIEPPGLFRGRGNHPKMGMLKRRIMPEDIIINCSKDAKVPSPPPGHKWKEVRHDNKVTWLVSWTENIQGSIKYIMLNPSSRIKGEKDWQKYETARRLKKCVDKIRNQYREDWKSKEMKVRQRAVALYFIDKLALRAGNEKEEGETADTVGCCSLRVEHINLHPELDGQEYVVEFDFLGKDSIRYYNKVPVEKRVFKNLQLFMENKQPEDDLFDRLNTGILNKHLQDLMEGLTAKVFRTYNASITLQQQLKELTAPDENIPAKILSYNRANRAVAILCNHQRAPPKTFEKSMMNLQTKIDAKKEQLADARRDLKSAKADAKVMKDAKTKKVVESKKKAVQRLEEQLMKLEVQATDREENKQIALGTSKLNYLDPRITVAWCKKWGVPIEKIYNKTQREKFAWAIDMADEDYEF

p14ARF (ARF), cellular protein in nuclear extracts (endogenous or expressed from the Adp14 adenoviral vector) (from UniProt Q8N726 1-132)
3 fold: fold increase in ARF/topoisomerase I complex formation in Adp14-treated H358 cells against Ad1β-treated, control siRNA treated, or non-vector treated cells [1] | fold decrease in ARF/topoisomerase I complex formation in ARF siRNA-treated H358 cells [2] | fold increase of co-immunoprecipitated ARF-topoisomerase I complexes after Adp14 treatment against untreated H358 cells [3]
